Measurements: article PMC9365288 (Science Advances, 2022)

Molecular target: Recombinant TRAF-USP7 (residues 55 to 208) (UniProt Q93009 55-208)
Test: SPR

Recombinant TRAF-USP7 (residues 55 to 208), sequence (Q93009 55-208): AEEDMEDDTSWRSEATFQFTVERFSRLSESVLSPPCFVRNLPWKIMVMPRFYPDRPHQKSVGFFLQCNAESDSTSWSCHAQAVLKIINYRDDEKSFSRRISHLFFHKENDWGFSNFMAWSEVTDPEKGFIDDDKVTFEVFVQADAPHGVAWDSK

B1: Recombinant BTB-Keap1 (residues 48 to 180) (domain or fragment, UniProt Q14145 48-180, looked up)
chain: GNRTFSYTLEDHTKQAFGIMNELRLSQQLCDVTLQVKYQDAPAAQFMAHKVVLASSSPVFKAMFTNGLREQGMEVVSIEGIHPKVMERLIEFAYTASISMGEKCVLHVMNGAVMYQIDSVVRACSDFLVQQLD
  Kd: 0.018 µM
